Results taken from patent publication US20220040304A1, “A COMPOSITION FOR CANCER CELL DEATH AND ITS USE” (Industry-University Cooperation Foundation Hanyang …, priority 2018, published 2022).

Legend:
[1] = Stability of bioluminescence intensity in PBS or normal mouse serum; conditions: buffer (1×PBS) or normal mouse serum, 37° C., protein 10 μM, Co-h 150 μM
Description: Bioluminescence assay was performed by reaction of 30 μL of buffer (1×PBS) containing the purified protein RLuc8.6 or RLuc8.6-KR-LP protein, or RLuc8 or RLuc8-MS-LP protein (final concentration: 10 μM) and 0.8 μL of a Co-h substrate solution (final concentration: 150 μM) in an incubator (37° C.). 30 μL of normal mouse serum (Jackson ImmunoResearch, USA) containing the purified protein (final concentration: 10 μM) and 0.8 μL of a Co-h substrate solution (final concentration: 150 μM) were reacted in an incubator (37° C.). Bioluminescence intensity was immediately measured using GLOMAX.

[2] = Bioluminescence assay of purified proteins with Co-h substrate (BRET); assay type: physicochemical; conditions: protein 1 μM, Co-h 50 μM, 1×PBS
Description: In addition, 100 μL of buffer (1×PBS) containing the protein purified in Example 1 (final concentration: 1 μM) was dispensed into a 96-well plate (SPL Cell Culture Plate, 96 well (SPL, Cat #30196)), and bioluminescence assay was then performed using 50 μL of buffer (1×PBS) containing a Co-h substrate solution (final concentration: 50 μM), which is a wild-type 2-deoxy derivative. Bioluminescence intensity was immediately measured at a wavelength of 300 to 800 nm using a Thermo Scientific™ Varioskan™ Flash Multimode Reader.

Molecule	luminescence intensity with increasing reaction time (stability) [1]	emission in bioluminescence assay (BRET) [2] [nm]
RLuc8.6: third protein, mutant Renilla luciferase 8.6 providing light, 38 kDa (protein, RLuc8.6, third protein, mutant Renilla luciferase 8.6 providing light, 38 kDa) MASKVYDPEQRKRMITGPQWWARCKQMNVLDSFINYYDSEKHAENAVIFLHGNATSSYLWRHVVPHIEPVARCIIPDLIGMGKSGKSGNGSYRLLDHYKYLTAWFELLNLPKKIIFVGHDWGSALAFHYAYEHQDRIKAIVHMESVVDVIESWMGWPDIEEELALIKSEEGEKMVLENNFFVETLLPSKIMRKLEPEEFAAYLEPFKEKGEVRRPTLSWPREIPLVKGGKPDVVQIVRNYNAYLRASDDLPKLFIESDPGFFYNAIVEGAKKFPNTEFVKVKGLHFLQEDAPDEMGKYIKSFVERVLKNEQ	constant	535
RLuc8: third protein, mutant Renilla luciferase 8 providing light, 38 kDa (protein, RLuc8) MASKVYDPEQRKRMITGPQWWARCKQMNVLDSFINYYDSEKHAENAVIFLHGNATSSYLWRHVVPHIEPVARCIIPDLIGMGKSGKSGNGSYRLLDHYKYLTAWFELLNLPKKIIFVGHDWGAALAFHYAYEHQDRIKAIVHMESVVDVIESWDEWPDIEEDIALIKSEEGEKMVLENNFFVETVLPSKIMRKLEPEEFAAYLEPFKEKGEVRRPTLSWPREIPLVKGGKPDVVQIVRNYNAYLRASDDLPKLFIESDPGFFSNAIVEGAKKFPNTEFVKVKGLHFLQEDAPDEMGKYIKSFVERVLKNEQ	–	480
